Where two headings read alike, the source gives them in different places.
Legend:
HCV proteins = target: T1, HCV proteins (Hepatitis C virus genotype 1b, UniProt Q9WMX2); experiment: Validation by Y2H pairwise matrices; format: binding;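 also: yeast two-hybrid pairwise tests of interactions first found in Y2H screens of HCV bait proteins against human cDNA libraries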
T1 construct: expressed in transfected cells

[1] = target: T2, HCV ORFs (Gal4-DB fusions) (Hepatitis C virus genotype 1b, UniProt Q9WMX2); format: binding, HCV genotype 1b, isolate con1; settings: human protein as prey
T2 construct: expressed in transfected cells; host or cells: Saccharomyces cerevisiae MAV203 (IMAP1) / AH109 (IMAP2)

[2] = test system: HCV ORFs (Gal4-DB fusions); format: binding, HCV genotype 1b, isolate con1; settings: human protein listed by gene symbol; the value names the HCV protein it interacts with
[3] = validation of interaction with HCV protein NS3
[4] = validation of interaction with HCV protein CORE
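For IMAP Y2H IMAP1 (number of IST) in this document: yeast two-hybrid screens using HCV genotype 1b proteins fused to Gal4-DB as baits against prey cDNA libraries from human spleen and foetal brain, IMAP1 via transformation and IMAP2 via mating.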
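For Interaction with viral protein in this document: yeast two-hybrid screens using HCV genotype 1b proteins fused to Gal4-DB as baits against prey cDNA libraries from human spleen and foetal brain, IMAP1 via transformation and IMAP2 via mating.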

B1: EFEMP2 (protein, UniProt O95967 24-443, looked up)
EGF-containing fibulin-like …: SASPQDSEEPDSYTECTDGYEWDPDSQHCRDVNECLTIPEACKGEMKCINHYGGYLCLPRSAAVINDLHGEGPPPPVPPAQHPNPCPPGYEPDDQDSCVDVDECAQALHDCRPSQDCHNLPGSYQCTCPDGYRKIGPECVDIDECRYRYCQHRCVNLPGSFRCQCEPGFQLGPNNRSCVDVNECDMGAPCEQRCFNSYGTFLCRCHQGYELHRDGFSCSDIDECSYSSYLCQYRCINEPGRFSCHCPQGYQLLATRLCQDIDECESGAHQCSEAQTCVNFHGGYRCVDTNRCVEPYIQVSENRCLCPASNPLCREQPSSIVHRYMTITSERSVPADVFQIQATSVYPGAYNAFQIRAGNSQGDFYIRQINNVSAMLVLARPVTGPREYVLDLEMVTMNSLMSYRASSVLRLTVFVGAYTF
- Y2H matrices (HCV proteins; [3]): +
- IMAP Y2H IMAP1 (number of IST) ([1]; HCV protein NS3 as bait): 3
- Interaction with viral protein [2]: NS3

B2: FBLN2 (protein, UniProt P98095 28-1184, looked up)
Fibulin-2: APRQDCTGVECPPLENCIEEALEPGACCATCVQQGCACEGYQYYDCLQGGFVRGRVPAGQSYFVDFGSTECSCPPGGGKISCQFMLCPELPPNCIEAVVVADSCPQCGQVGCVHAGHKYAAGHTVHLPPCRACHCPDAGGELICYQLPGCHGNFSDAEEGDPERHYEDPYSYDQEVAEVEAATALGGEVQAGAVQAGAGGPPAALGGGSQPLSTIQAPPWPAVLPRPTAAAALGPPAPVQAKARRVTEDSEEEEEEEEEREEMAVTEQLAAGGHRGLDGLPTTAPAGPSLPIQEERAEAGARAEAGARPEENLILDAQATSRSTGPEGVTHAPSLGKAALVPTQAVPGSPRDPVKPSPHNILSTSLPDAAWIPPTREVPRKPQVLPHSHVEEDTDPNSVHSIPRSSPEGSTKDLIETCCAAGQQWAIDNDECLEIPESGTEDNVCRTAQRHCCVSYLQEKSCMAGVLGAKEGETCGAEDNDSCGISLYKQCCDCCGLGLRVRAEGQSCESNPNLGYPCNHVMLSCCEGEEPLIVPEVRRPPEPAAAPRRVSEAEMAGREALSLGTEAELPNSLPGDDQDECLLLPGELCQHLCINTVGSYHCACFPGFSLQDDGRTCRPEGHPPQPEAPQEPALKSEFSQVASNTIPLPLPQPNTCKDNGPCKQVCSTVGGSAICSCFPGYAIMADGVSCEDINECVTDLHTCSRGEHCVNTLGSFHCYKALTCEPGYALKDGECEDVDECAMGTHTCQPGFLCQNTKGSFYCQARQRCMDGFLQDPEGNCVDINECTSLSEPCRPGFSCINTVGSYTCQRNPLICARGYHASDDGTKCVDVNECETGVHRCGEGQVCHNLPGSYRCDCKAGFQRDAFGRGCIDVNECWASPGRLCQHTCENTLGSYRCSCASGFLLAADGKRCEDVNECEAQRCSQECANIYGSYQCYCRQGYQLAEDGHTCTDIDECAQGAGILCTFRCLNVPGSYQCACPEQGYTMTANGRSCKDVDECALGTHNCSEAETCHNIQGSFRCLRFECPPNYVQVSKTKCERTTCHDFLECQNSPARITHYQLNFQTGLLVPAHIFRIGPAPAFTGDTIALNIIKGNEEGYFGTRRLNAYTGVVYLQRAVLEPRDFALDVEMKLWRQGSVTTFLAKMHIFFTTFAL
- Y2H matrices (HCV proteins; interaction with HCV protein p7): +
- Y2H matrices (HCV proteins; [4]): +
- Y2H matrices (HCV proteins; [3]): +
- IMAP Y2H IMAP1 (number of IST) ([1]; HCV protein CORE as bait): 1
- IMAP Y2H IMAP1 (number of IST) ([1]; HCV protein NS3 as bait): 9
- IMAP Y2H IMAP1 (number of IST) ([1]; HCV protein p7 as bait): 1
- Interaction with viral protein [2]: CORE and NS3

B3: DPF1 (protein, UniProt Q92782 1-387, looked up)
Zinc finger protein neuro-d4: MATVIPGPLSLGEDFYREAIEHCRSYNARLCAERSLRLPFLDSQTGVAQNNCYIWMEKTHRGPGLAPGQIYTYPARCWRKKRRLNILEDPRLRPCEYKIDCEAPLKKEGGLPEGPVLEALLCAETGEKKIELKEEETIMDCQKQQLLEFPHDLEVEDLEDDIPRRKNRAKGKAYGIGGLRKRQDTASLEDRDKPYVCDICGKRYKNRPGLSYHYTHTHLAEEEGEENAERHALPFHRKNNHKQFYKELAWVPEAQRKHTAKKAPDGTVIPNGYCDFCLGGSKKTGCPEDLISCADCGRSGHPSCLQFTVNMTAAVRTYRWQCIECKSCSLCGTSENDDQLLFCDDCDRGYHMYCLSPPMAEPPEGSWSCHLCLRHLKEKASAYITLT
- Y2H matrices (HCV proteins; [3]): +
- IMAP Y2H IMAP1 (number of IST) ([1]; HCV protein NS3 as bait): 1
- Interaction with viral protein [2]: NS3

B4: DEAF1 (protein, UniProt O75398 1-565, looked up)
Deformed epidermal …: MEDSDSAAKQLGLAEAAAVAAAAAVAAAAAAAAGGEAEEPVLSRDEDSEEDADSEAERETPRVTAVAVMAAEPGHMDMGAEALPGPDEAAAAAAFAEVTTVTVANVGAAADNVFTTSVANAASISGHVLSGRTALQIGDSLNTEKATLIVVHTDGSIVETTGLKGPAAPLTPGPQSPPTPLAPGQEKGGTKYNWDPSVYDSELPVRCRNISGTLYKNRLGSGGRGRCIKQGENWYSPTEFEAMAGRASSKDWKRSIRYAGRPLQCLIQDGILNPHAASCTCAACCDDMTLSGPVRLFVPYKRRKKENELPTTPVKKDSPKNITLLPATAATTFTVTPSGQITTSGALTFDRASTVEATAVISESPAQGDVFAGATVQEASVQPPCRASHPEPHYPGYQDSCQIAPFPEAALPTSHPKIVLTSLPALAVPPPTPTKAAPPALVNGLELSEPRSWLYLEEMVNSLLNTAQQLKTLFEQAKHASTYREAATNQAKIHADAERKEQSCVNCGREAMSECTGCHKVNYCSTFCQRKDWKDHQHICGQSAAVTVQADEVHVAESVMEKVTV
- Y2H matrices (HCV proteins; [3]): +
- IMAP Y2H IMAP1 (number of IST) ([1]; HCV protein NS3 as bait): 6
- Interaction with viral protein [2]: NS3

B5: FBLN5 (protein, UniProt Q9UBX5 24-448, looked up)
Fibulin-5: QAQCTNGFDLDRQSGQCLDIDECRTIPEACRGDMMCVNQNGGYLCIPRTNPVYRGPYSNPYSTPYSGPYPAAAPPLSAPNYPTISRPLICRFGYQMDESNQCVDVDECATDSHQCNPTQICINTEGGYTCSCTDGYWLLEGQCLDIDECRYGYCQQLCANVPGSYSCTCNPGFTLNEDGRSCQDVNECATENPCVQTCVNTYGSFICRCDPGYELEEDGVHCSDMDECSFSEFLCQHECVNQPGTYFCSCPPGYILLDDNRSCQDINECEHRNHTCNLQQTCYNLQGGFKCIDPIRCEEPYLRISDNRCMCPAENPGCRDQPFTILYRDMDVVSGRSVPADIFQMQATTRYPGAYYIFQIKSGNEGREFYMRQTGPISATLVMTRPIKGPREIQLDLEMITVNTVINFRGSSVIRLRIYVSQYPF
- Y2H matrices (HCV proteins; [4]): +
- Y2H matrices (HCV proteins; validation of interaction with HCV protein NS2): +
- Y2H matrices (HCV proteins; [3]): +
- IMAP Y2H IMAP1 (number of IST) ([1]; HCV protein CORE as bait): 1
- IMAP Y2H IMAP1 (number of IST) ([1]; HCV protein NS2 as bait): 1
- IMAP Y2H IMAP1 (number of IST) ([1]; HCV protein NS3 as bait): 32
- Interaction with viral protein [2]: CORE and NS3 and NS2

B6: FAM120B (protein, UniProt Q96EK7 1-910, looked up)
Constitutive coactivator of …: MGVRGLQGFVGSTCPHICTVVNFKELAEHHRSKYPGCTPTIVVDAMCCLRYWYTPESWICGGQWREYFSALRDFVKTFTAAGIKLIFFFDGMVEQDKRDEWVKRRLKNNREISRIFHYIKSHKEQPGRNMFFIPSGLAVFTRFALKTLGQETLCSLQEADYEVASYGLQHNCLGILGEDTDYLIYDTCPYFSISELCLESLDTVMLCREKLCESLGLCVADLPLLACLLGNDIIPEGMFESFRYKCLSSYTSVKENFDKKGNIILAVSDHISKVLYLYQGEKKLEEILPLGPNKALFYKGMASYLLPGQKSPWFFQKPKGVITLDKQVISTSSDAESREEVPMCSDAESRQEVPMCTGPESRREVPVYTDSEPRQEVPMCSDPEPRQEVPTCTGPESRREVPMCSDPEPRQEVPMCTGPEARQEVPMYTDSEPRQEVPMYTDSEPRQEVPMYTGSEPRQEVPMYTGPESRQEVPMYTGPESRQEVLIRTDPESRQEIMCTGHESKQEVPICTDPISKQEDSMCTHAEINQKLPVATDFEFKLEALMCTNPEIKQEDPTNVGPEVKQQVTMVSDTEILKVARTHHVQAESYLVYNIMSSGEIECSNTLEDELDQALPSQAFIYRPIRQRVYSLLLEDCQDVTSTCLAVKEWFVYPGNPLRHPDLVRPLQMTIPGGTPSLKILWLNQEPEIQVRRLDTLLACFNLSSSREELQAVESPFQALCCLLIYLFVQVDTLCLEDLHAFIAQALCLQGKSTSQLVNLQPDYINPRAVQLGSLLVRGLTTLVLVNSACGFPWKTSDFMPWNVFDGKLFHQKYLQSEKGYAVEVLLEQNRSRLTKFHNLKAVVCKACMKENRRITGRAHWGSHHAGRWGRQGSSYHRTGSGYSRSSQGQPWRDQGPGSRQYEHDQWRRY
- Y2H matrices (HCV proteins; [3]): +
- IMAP Y2H IMAP1 (number of IST) ([1]; HCV protein NS3 as bait): 1
- Interaction with viral protein [2]: NS3

— patent publication US20110091994A1, “Methods for Screening Compounds for Treating and/or Preventing an Hepatitis C Virus Infection” (priority 2008, published 2011)
